Results as given in patent US20190077860A1 (EISAI R AND D MANAGEMENT, published 2019).
Numbering of substitutions follows the chain as printed.

T1: human EphB3 extracellular region-SEAP-His protein (human, UniProt P54753 34-559)
T1 construct: extracellular domain; also called hEphB3-SEAP-His
T1 sequence (looked up): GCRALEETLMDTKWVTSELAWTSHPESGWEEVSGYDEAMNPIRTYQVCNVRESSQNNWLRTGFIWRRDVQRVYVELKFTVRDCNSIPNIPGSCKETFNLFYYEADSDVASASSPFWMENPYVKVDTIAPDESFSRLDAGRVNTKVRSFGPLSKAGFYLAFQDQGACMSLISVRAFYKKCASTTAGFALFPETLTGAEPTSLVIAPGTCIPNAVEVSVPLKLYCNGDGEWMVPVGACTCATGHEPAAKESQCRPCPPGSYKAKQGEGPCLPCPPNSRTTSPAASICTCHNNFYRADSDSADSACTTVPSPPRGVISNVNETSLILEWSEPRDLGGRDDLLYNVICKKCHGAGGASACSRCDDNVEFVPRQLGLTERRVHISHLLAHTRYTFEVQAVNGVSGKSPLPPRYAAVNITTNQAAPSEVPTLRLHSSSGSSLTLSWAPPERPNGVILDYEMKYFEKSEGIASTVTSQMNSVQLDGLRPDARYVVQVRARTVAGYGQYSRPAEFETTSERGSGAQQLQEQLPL

T2: human EphA7 extracellular region-SEAP-His protein (human, UniProt Q15375 28-555)
T2 construct: extracellular domain; also called hEphA7-SEAP-His
T2 sequence (looked up): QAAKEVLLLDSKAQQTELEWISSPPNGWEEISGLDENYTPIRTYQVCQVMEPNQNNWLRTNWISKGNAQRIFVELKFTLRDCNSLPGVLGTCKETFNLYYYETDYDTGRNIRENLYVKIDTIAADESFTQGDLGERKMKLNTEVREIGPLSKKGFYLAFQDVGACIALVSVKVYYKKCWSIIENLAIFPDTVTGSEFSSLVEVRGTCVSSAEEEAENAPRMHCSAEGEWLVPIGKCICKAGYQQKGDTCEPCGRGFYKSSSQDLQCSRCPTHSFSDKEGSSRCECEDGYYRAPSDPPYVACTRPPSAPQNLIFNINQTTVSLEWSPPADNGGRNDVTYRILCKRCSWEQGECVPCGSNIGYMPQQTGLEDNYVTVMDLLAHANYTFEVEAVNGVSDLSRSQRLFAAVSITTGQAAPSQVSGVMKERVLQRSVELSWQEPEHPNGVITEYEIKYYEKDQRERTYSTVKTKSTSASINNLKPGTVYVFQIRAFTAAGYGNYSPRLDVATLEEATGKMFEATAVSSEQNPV

T3: human EphA1 extracellular region-SEAP-His protein (human, UniProt P21709 26-547)
T3 construct: extracellular domain; also called hEphA1-SEAP-His
T3 sequence (looked up): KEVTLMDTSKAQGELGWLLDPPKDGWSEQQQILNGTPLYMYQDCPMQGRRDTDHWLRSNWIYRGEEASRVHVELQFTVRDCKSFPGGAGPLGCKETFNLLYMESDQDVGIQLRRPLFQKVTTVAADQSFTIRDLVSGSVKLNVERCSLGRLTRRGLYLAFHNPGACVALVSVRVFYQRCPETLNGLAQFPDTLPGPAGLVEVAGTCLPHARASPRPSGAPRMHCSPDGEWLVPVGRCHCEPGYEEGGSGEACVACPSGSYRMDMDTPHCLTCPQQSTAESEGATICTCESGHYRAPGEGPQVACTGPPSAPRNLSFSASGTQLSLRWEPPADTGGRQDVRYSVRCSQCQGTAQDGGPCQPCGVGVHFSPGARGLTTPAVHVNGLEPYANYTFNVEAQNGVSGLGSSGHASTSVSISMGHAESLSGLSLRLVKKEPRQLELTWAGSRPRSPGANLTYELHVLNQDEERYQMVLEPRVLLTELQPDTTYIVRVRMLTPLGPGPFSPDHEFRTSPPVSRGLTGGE

T4: human EphA8 extracellular region-SEAP-His protein (human, UniProt P29322 28-542)
T4 construct: extracellular domain; also called hEphA8-SEAP-His
T4 sequence (looked up): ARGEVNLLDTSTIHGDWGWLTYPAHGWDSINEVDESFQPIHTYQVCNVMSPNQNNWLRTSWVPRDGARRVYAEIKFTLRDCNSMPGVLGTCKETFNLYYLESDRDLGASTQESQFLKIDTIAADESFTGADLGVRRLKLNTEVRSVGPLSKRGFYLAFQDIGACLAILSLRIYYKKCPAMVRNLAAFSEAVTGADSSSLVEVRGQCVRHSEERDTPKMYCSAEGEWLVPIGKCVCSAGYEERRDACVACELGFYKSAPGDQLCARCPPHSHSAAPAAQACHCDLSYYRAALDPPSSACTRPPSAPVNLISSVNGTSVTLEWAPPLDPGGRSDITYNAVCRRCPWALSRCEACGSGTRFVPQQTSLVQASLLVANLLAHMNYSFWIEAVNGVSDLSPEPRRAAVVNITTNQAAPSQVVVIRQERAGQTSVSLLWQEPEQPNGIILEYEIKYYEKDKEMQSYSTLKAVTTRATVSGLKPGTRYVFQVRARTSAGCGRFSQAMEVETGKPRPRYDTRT

B1: humanized antibody No. 73 (antibody, human IgG1, kappa)
heavy: QIQLVQSGSELKKPGASVKVSCKASGYTFTDYSMHWVRQAPGQGLKWMGWINTETGEPTYADDFKGRFVFSLDTSVSTAYLQISSLKAEDTAVYYCARIPLYYYGSRYWYFDVWGQGTTVTVSSASTKGPSVFPLAPSSKSTSGGTAALGCLVKDYFPEPVTVSWNSGALTSGVHTFPAVLQSSGLYSLSSVVTVPSSSLGTQTYICNVNHKPSNTKVDKRVEPKSCDKTHTCPPCPAPPAAAPSVFLFPPKPKDTLMISRTPEVTCVVVDVSHEDPEVQFNWYVDGVEVHNAKTKPREEQFNSTFRVVSVLTVVHQDWLNGKEYKCKVSNKGLPAPIEKTISKTKGQPREPQVYTLPPSREEMTKNQVSLTCLVKGFYPSDIAVEWESNGQPENNYKTTPPMLDSDGSFFLYSKLTVDKSRWQQGNVFSCSVMHEALHNHYTQKSLSLSPG
light: EIVMTQSPATLSVSPGERATLSCRASENIYRNLAWYQQKPGQSPRLLIYAATNLADGIPARFSGSGSGTEYTLTISSLQSEDFAVYYCQHFWGTPWTFGQGTKVEIKRTVAAPSVFIFPPSDEQLKSGTASVVCLLNNFYPREAKVQWKVDNALQSGNSQESVTEQDSKDSTYSLSSTLTLSKADYEKHKVYACEVTHQGLSSPVTKSFNRGEC
notes: human Ig kappa; also called L2-4/HK4
B2: humanized antibody No. 96 (antibody, human IgG1, kappa)
heavy: B1 heavy with I2V
light: B1 light
notes: human Ig kappa; also called L2-4/HK2
B3: humanized antibody No. 93 (antibody, human IgG1, kappa)
heavy: B1 heavy with I2V, K46E, D62Q, D63G, K65T
light: B1 light
notes: human Ig kappa; also called L2-4/HA1
B4: humanized antibody No. 95 (antibody, human IgG1, kappa)
heavy: B1 heavy with I2V, K46E
light: B1 light
notes: human Ig kappa; also called L2-4/HK1

These binders were tested against T1, human EphB3 extracellular … (assay: ELISA).

In order of falling “A450 as % of hEphA4-SEAP-His” value:
1. B1  5.8%
2. B2  5.6%
3. B3  5.1%
4. B4  4.6%

These binders were tested against T5, human EphA5 extracellular region-SEAP-His protein (human, UniProt P54756 25-573) (assay: ELISA).
T5 construct: extracellular domain; also called hEphA5-SEAP-His
T5 sequence (P54756 25-573): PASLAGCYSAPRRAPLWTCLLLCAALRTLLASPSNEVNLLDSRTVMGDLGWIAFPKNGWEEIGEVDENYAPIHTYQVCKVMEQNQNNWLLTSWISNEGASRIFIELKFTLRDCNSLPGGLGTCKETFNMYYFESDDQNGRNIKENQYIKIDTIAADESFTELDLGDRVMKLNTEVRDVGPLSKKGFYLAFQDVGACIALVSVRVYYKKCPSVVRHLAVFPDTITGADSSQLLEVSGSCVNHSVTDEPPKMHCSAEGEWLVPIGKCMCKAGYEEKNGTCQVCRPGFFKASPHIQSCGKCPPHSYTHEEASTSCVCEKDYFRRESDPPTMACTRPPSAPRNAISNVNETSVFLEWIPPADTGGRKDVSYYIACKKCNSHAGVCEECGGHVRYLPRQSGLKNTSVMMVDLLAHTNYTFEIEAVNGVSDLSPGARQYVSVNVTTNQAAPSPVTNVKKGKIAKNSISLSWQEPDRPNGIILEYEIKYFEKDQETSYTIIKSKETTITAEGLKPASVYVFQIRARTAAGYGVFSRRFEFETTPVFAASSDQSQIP

In order of rising “A450 as % of hEphA4-SEAP-His” value:
1. B4  4.6%
2. B3  4.9%
3. B1  6%
4. B2  6%

Each binder was assayed against T2, human EphA7 extracellular … (assay: ELISA).

In order of rising “A450 as % of hEphA4-SEAP-His” value:
1. B4  4.4%
2. B3  4.9%
3. B2  5.3%
4. B1  5.6%

What follows are binders tested against T3, human EphA1 extracellular … (assay: ELISA).

In order of rising “A450 as % of hEphA4-SEAP-His” value:
1. B4  4.5%
2. B3  5%
3. B2  5.6%
4. B1  6%

These binders were tested against T4, human EphA8 extracellular … (assay: ELISA).

In order of falling “A450 as % of hEphA4-SEAP-His” value:
1. B1  5.8%
2. B2  5.4%
3. B3  5%
4. B4  4.4%

These binders were tested against T6, human EphA4 extracellular region-SEAP-His protein (human, UniProt P54764 20-547) (assay: ELISA).
T6 construct: also called hEphA4-SEAP-His
T6 sequence (P54764 20-547): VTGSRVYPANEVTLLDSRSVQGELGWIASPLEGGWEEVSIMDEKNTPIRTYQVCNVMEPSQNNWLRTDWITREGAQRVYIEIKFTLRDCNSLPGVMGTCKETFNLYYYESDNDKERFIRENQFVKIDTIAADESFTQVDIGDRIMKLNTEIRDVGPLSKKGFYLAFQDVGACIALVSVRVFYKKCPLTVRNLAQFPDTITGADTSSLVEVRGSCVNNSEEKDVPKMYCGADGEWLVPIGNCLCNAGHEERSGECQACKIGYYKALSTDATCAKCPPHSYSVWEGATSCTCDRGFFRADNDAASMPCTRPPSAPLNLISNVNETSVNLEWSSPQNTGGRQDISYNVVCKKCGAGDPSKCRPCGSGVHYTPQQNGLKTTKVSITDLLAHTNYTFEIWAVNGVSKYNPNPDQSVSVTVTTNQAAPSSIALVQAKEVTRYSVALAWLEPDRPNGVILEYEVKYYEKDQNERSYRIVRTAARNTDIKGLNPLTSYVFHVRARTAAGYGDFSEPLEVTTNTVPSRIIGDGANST

In order of falling “A450 as % of hEphA4-SEAP-His” value:
1. B1  100%
2. B2  100%
3. B3  100%
4. B4  100%
